Measured values from the Immune Epitope Database (IEDB).
Each block holds one sequence with its values, some of them ahead of it.

Legend:
HLA-B*15:01 [1] = assay: IEDB peptide-MHC binding, purified MHC/competitive/fluorescence; ≥ and ≤ were set here for values at or beyond the usual limits of such assays
HLA-B*07:02 = assay: IEDB peptide-MHC binding, purified MHC/direct/fluorescence; filed as Kd, often an IC50 or EC50 that approximates it; ≥ and ≤ were set here for values at or beyond the usual limits of such assays
HLA-B*27:05 = assay: as above
HLA-A*30:01 = assay: as above
HLA-B*58:01 = assay: as above
HLA-A*02:01 [2] = assay: as above
HLA-A*24:03 = assay: as above
HLA-A*11:01 [3] = assay: as above
HLA-A*01:01 = assay: as above
HLA-B*08:01 = assay: as above
HLA-A*69:01 = assay: as above
HLA-B*40:01 = assay: as above
HLA-B*15:01 [4] = assay: as above
HLA-A*26:01 [5] = assay: as above
HLA-A*03:01 [6] = assay: as above
HLA-A*31:01 = assay: as above
HLA-C*15:02 = assay: as above
HLA-A*02:01 [7] = assay: IEDB peptide-MHC binding, purified MHC/competitive/fluorescence; ≥ and ≤ were set here for values at or beyond the usual limits of such assays
HLA-A*03:01 [8] = assay: as above
HLA-A*23:01 [9] = assay: IEDB peptide-MHC binding, purified MHC/direct/fluorescence; filed as Kd, often an IC50 or EC50 that approximates it; ≥ and ≤ were set here for values at or beyond the usual limits of such assays
HLA-A*23:01 [10] = assay: IEDB peptide-MHC binding, purified MHC/competitive/fluorescence; filed as Kd, often an IC50 or EC50 that approximates it; ≥ and ≤ were set here for values at or beyond the usual limits of such assays; conditions: source organism: Bacillus cereus ATCC 14579
HLA-B*35:01 = assay: as above; conditions: source organism: Influenza A virus H3N2
HLA-A*24:02 = assay: IEDB peptide-MHC binding, purified MHC/competitive/fluorescence; ≥ and ≤ were set here for values at or beyond the usual limits of such assays
HLA-A*11:01 [11] = assay: as above
HLA-B*44:02 = assay: IEDB peptide-MHC binding, purified MHC/direct/fluorescence; filed as Kd, often an IC50 or EC50 that approximates it; ≥ and ≤ were set here for values at or beyond the usual limits of such assays
HLA-B*57:01 = assay: as above
HLA-B*18:01 = assay: as above
HLA-B*46:01 = assay: as above
HLA-B*08:02 = assay: as above; conditions: source organism: Brucella suis 1330
HLA-A*29:02 = assay: as above
HLA-B*15:17 = assay: IEDB peptide-MHC binding, purified MHC/competitive/fluorescence; filed as Kd, often an IC50 or EC50 that approximates it; ≥ and ≤ were set here for values at or beyond the usual limits of such assays; conditions: source organism: Zaire ebolavirus
HLA-B*27:03 = assay: as above; conditions: source organism: Zaire ebolavirus
HLA-B*39:01 = assay: as above; conditions: source organism: Zaire ebolavirus
HLA-B*51:01 = assay: as above; conditions: source organism: Zaire ebolavirus
HLA-A*26:01 [12] = assay: as above; conditions: source organism: Zaire ebolavirus
HLA-A*02:12 = assay: IEDB peptide-MHC binding, purified MHC/direct/fluorescence; filed as Kd, often an IC50 or EC50 that approximates it; ≥ and ≤ were set here for values at or beyond the usual limits of such assays; conditions: source organism: Zaire ebolavirus
HLA-A*02:11 = assay: as above; conditions: source organism: Zaire ebolavirus
HLA-A*68:02 = assay: as above; conditions: source organism: Zaire ebolavirus
HLA-C*05:01 = assay: as above; conditions: source organism: Mycobacterium tuberculosis variant bovis BCG str. Pasteur 1173P2
[13] = source organism: Aggregatibacter actinomycetemcomitans
[14] = source organism: Orthohantavirus hantanense
[15] = source organism: Vaccinia virus
[16] = source organism: Corynebacterium glutamicum
[17] = source organism: Yersinia pestis Antiqua
[18] = source organism: Yersinia pestis
[19] = source organism: Sudan ebolavirus
[20] = source organism: Sudan ebolavirus - Maleo (1979)
[21] = source organism: Zaire ebolavirus
[22] = source organism: Treponema denticola

Sequence: SQVPKLLLW
- IC50 (HLA-B*15:01 [1]; source organism: Variola virus): ≥ 121 µM

- Kd (HLA-B*07:02; [13]): ≥ 20 µM
- Kd (HLA-B*27:05; [13]): ≥ 20 µM
- Kd (HLA-A*30:01; [13]): ≥ 10 µM
- Kd (HLA-B*58:01; [13]): 0.663 µM
- Kd (HLA-A*02:01 [2]; [13]): ≥ 20 µM
- Kd (HLA-A*24:03; [13]): ≥ 20 µM
- Kd (HLA-A*11:01 [3]; [13]): ≥ 20 µM
- Kd (HLA-A*01:01; [13]): 0.111 µM
- Kd (HLA-B*08:01; [13]): ≥ 20 µM
- Kd (HLA-A*69:01; [13]): ≥ 20 µM
- Kd (HLA-B*40:01; [13]): ≥ 20 µM
- Kd (HLA-B*15:01 [4]; [13]): 6.28 µM
- Kd (HLA-A*26:01 [5]; [13]): ≥ 20 µM
- Kd (HLA-A*03:01 [6]; [13]): ≥ 20 µM
- Kd (HLA-A*31:01; [13]): ≥ 20 µM
Sequence: RSEVELCIY

Sequence: KSRRFTVRF
- Kd (HLA-B*58:01; source organism: Mycobacterium tuberculosis): 0.422 µM
- Kd (HLA-C*15:02; source organism: Mycobacterium tuberculosis variant bovis BCG str. Pasteur 1173P2): ≥ 20 µM

Sequence: KLFSYGTLI
- IC50 (HLA-A*02:01 [7]; source organism: Variola virus): 0.61 µM
- IC50 (HLA-B*15:01 [1]; source organism: Variola virus): 26.2 µM
- IC50 (HLA-A*03:01 [8]; source organism: Variola virus): 5.5 µM

Sequence: NYYAPRIQF
- Kd (HLA-A*30:01; source organism: Hantaan virus Q32): ≥ 20 µM
- Kd (HLA-A*24:03; [14]): 0.0074 µM
- Kd (HLA-A*23:01 [9]; [14]): 0.0059 µM

Sequence: RAFRNLNVT
- IC50 (HLA-A*02:01 [7]; [15]): 48.3 µM
- IC50 (HLA-B*15:01 [1]; [15]): ≥ 77.9 µM

- Kd (HLA-B*07:02; [16]): 6.67 µM
- Kd (HLA-B*27:05; [16]): ≥ 20 µM
- Kd (HLA-A*30:01; [16]): 0.0317 µM
- Kd (HLA-B*58:01; [16]): 0.444 µM
- Kd (HLA-A*02:01 [2]; [16]): 0.115 µM
- Kd (HLA-A*24:03; [16]): 0.00444 µM
- Kd (HLA-A*11:01 [3]; [16]): 0.021 µM
- Kd (HLA-A*01:01; [16]): 3.13 µM
- Kd (HLA-B*08:01; [16]): ≥ 20 µM
- Kd (HLA-B*40:01; [16]): ≥ 20 µM
- Kd (HLA-B*15:01 [4]; [16]): ≥ 20 µM
- Kd (HLA-A*26:01 [5]; [16]): ≥ 20 µM
- Kd (HLA-A*03:01 [6]; [16]): ≥ 20 µM
Sequence: ATQPVHWFL

Sequence: LYSLWTKRK
- Kd (HLA-A*23:01 [10]): 0.245 µM

- Kd (HLA-C*15:02; source organism: Rattus norvegicus): 0.239 µM
Sequence: ILMEHIHKL

Sequence: RYQRMTGGY
- Kd (HLA-B*07:02; [17]): ≥ 20 µM
- Kd (HLA-B*27:05; [18]): 2.93 µM
- Kd (HLA-A*30:01; [18]): 2.34 µM
- Kd (HLA-B*58:01; [17]): ≥ 20 µM
- Kd (HLA-A*02:01 [2]; [17]): ≥ 20 µM
- Kd (HLA-A*24:03; [18]): 0.00621 µM
- Kd (HLA-A*01:01; [17]): ≥ 20 µM
- Kd (HLA-B*08:01; [17]): ≥ 20 µM
- Kd (HLA-A*69:01; [17]): ≥ 20 µM
- Kd (HLA-B*40:01; [17]): ≥ 20 µM
- Kd (HLA-B*15:01 [4]; [18]): 1.35 µM
- Kd (HLA-A*26:01 [5]; [17]): ≥ 20 µM
- Kd (HLA-A*03:01 [6]; [17]): ≥ 20 µM
- Kd (HLA-A*31:01; [18]): 0.388 µM

Sequence: VTTPARTAF
- Kd (HLA-B*58:01; source organism: Mycobacterium avium 104): 1.1 µM
- Kd (HLA-C*15:02; source organism: Mycobacterium tuberculosis C): ≥ 20 µM

Sequence: LTITYSSSM
- Kd (HLA-B*35:01): 1.18 µM
- Kd (HLA-A*26:01 [5]; source organism: Influenza A virus (A/swine/Miyagi/5/2003(H1N2))): 0.0618 µM

Sequence: YFNVLDEKY
- IC50 (HLA-A*24:02; [15]): 33 µM
- IC50 (HLA-B*15:01 [1]; [15]): ≥ 283 µM

Sequence: TVCGGIMFL
- Kd (HLA-C*15:02; source organism: human gammaherpesvirus 4): 2.47 µM

Sequence: ILFQKAFSM
- IC50 (HLA-A*02:01 [7]; [19]): 0.626 µM
- IC50 (HLA-A*11:01 [11]; [19]): 54.8 µM
- IC50 (HLA-A*24:02; [19]): 0.336 µM
- IC50 (HLA-B*15:01 [1]; [19]): 4.24 µM
- IC50 (HLA-A*03:01 [8]; [19]): 15.7 µM

Sequence: IIIAVARKH
- IC50 (HLA-A*02:01 [7]; source organism: Variola virus): 50.9 µM
- IC50 (HLA-A*11:01 [11]; source organism: Variola virus): 14.5 µM
- IC50 (HLA-A*24:02; source organism: Variola virus): 2.98 µM
- IC50 (HLA-B*15:01 [1]; source organism: Variola virus): 36.4 µM
- IC50 (HLA-A*03:01 [8]; source organism: Variola virus): 35.5 µM

Sequence: YQRRRRFAI
- Kd (HLA-B*07:02; source organism: Brucella suis): ≥ 20 µM
- Kd (HLA-B*44:02; source organism: Brucella suis): ≥ 20 µM
- Kd (HLA-B*58:01; source organism: Brucella suis): ≥ 20 µM
- Kd (HLA-A*02:01 [2]; source organism: Brucella suis): ≥ 20 µM
- Kd (HLA-B*57:01; source organism: Brucella suis): ≥ 20 µM
- Kd (HLA-B*18:01; source organism: Brucella suis): ≥ 20 µM
- Kd (HLA-A*01:01; source organism: Brucella suis): ≥ 20 µM
- Kd (HLA-B*46:01; source organism: Brucella suis): ≥ 20 µM
- Kd (HLA-B*08:02): 0.367 µM
- Kd (HLA-A*29:02; source organism: Brucella suis): ≥ 20 µM
- Kd (HLA-A*69:01; source organism: Brucella suis): ≥ 20 µM
- Kd (HLA-B*40:01; source organism: Brucella suis): ≥ 20 µM
- Kd (HLA-A*03:01 [6]; source organism: Brucella suis): ≥ 20 µM

Sequence: MHYKLDEVL
- Kd (HLA-B*15:17): ≥ 20 µM
- Kd (HLA-B*27:03): ≥ 20 µM
- Kd (HLA-B*39:01): 0.0041 µM
- Kd (HLA-B*51:01): ≥ 20 µM
- Kd (HLA-A*26:01 [12]): ≥ 20 µM
- Kd (HLA-B*07:02; [20]): ≥ 20 µM
- Kd (HLA-B*27:05; [20]): ≥ 20 µM
- Kd (HLA-B*44:02; [20]): ≥ 20 µM
- Kd (HLA-B*58:01; [20]): ≥ 20 µM
- Kd (HLA-A*02:01 [2]; [20]): ≥ 20 µM
- Kd (HLA-A*02:12): ≥ 20 µM
- Kd (HLA-A*24:03; [21]): ≥ 20 µM
- Kd (HLA-B*57:01; [20]): ≥ 20 µM
- Kd (HLA-B*18:01; [20]): ≥ 20 µM
- Kd (HLA-A*23:01 [9]; [21]): ≥ 20 µM
- Kd (HLA-A*11:01 [3]; [20]): ≥ 20 µM
- Kd (HLA-A*01:01; [20]): ≥ 20 µM
- Kd (HLA-B*46:01; [20]): ≥ 20 µM
- Kd (HLA-A*02:11): ≥ 20 µM
- Kd (HLA-B*08:01; [20]): ≥ 20 µM
- Kd (HLA-A*68:02): ≥ 20 µM
- Kd (HLA-A*29:02; [20]): ≥ 20 µM
- Kd (HLA-A*69:01; [20]): ≥ 20 µM
- Kd (HLA-B*40:01; [20]): ≥ 20 µM
- Kd (HLA-B*15:01 [4]; [20]): ≥ 20 µM
- Kd (HLA-A*03:01 [6]; [20]): ≥ 20 µM
- Kd (HLA-A*31:01; [20]): ≥ 20 µM

Sequence: RQDEVGTPF
- Kd (HLA-A*02:01 [2]; [22]): 2.01 µM
- Kd (HLA-C*05:01): ≤ 0.001 µM
- Kd (HLA-A*69:01; [22]): ≥ 20 µM

Sequence: AVSHLTTLA
- IC50 (HLA-A*02:01 [7]; [21]): 3.08 µM
- IC50 (HLA-B*15:01 [1]; [21]): ≥ 135 µM
